Experimental data reported in publication doi:10.1101/464131, “Increased association between Epstein-Barr virus EBNA2 from type 2 strains and the transcriptional repressor BS69 restricts B cell growth” (bioRxiv, 2018).
Where a chain is given by its changes, count along the chain named. In names and notes the source's numbering stands.

T1: BS69 CC-MYND domain (amino acids 480-602) (human, UniProt Q15326-1 480-602)
T1 chain: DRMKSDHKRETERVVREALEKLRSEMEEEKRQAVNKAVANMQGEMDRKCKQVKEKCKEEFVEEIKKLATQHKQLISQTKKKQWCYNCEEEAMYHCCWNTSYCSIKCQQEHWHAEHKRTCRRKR

B1: type 2 EBNA2 polypeptide T2 EBNA2_(348-412) (domain or fragment)
chain: SMPQLSPVVSLHQGQGPENSPTPGPSTAGPVCRVTPSATPDISPIHEPESSDSEEPPFLFPSDWY
notes: pET47b+ construct; also called type 2 EBNA2_(348-412); source: E. coli Rosetta 2 (DE3) pLysS, purified (cobalt resin, 3C protease cleavage, Superdex 75); not shown: His6, N-terminal, cleaved
B2: type 1 EBNA2 polypeptide T1 EBNA2_(381-455) (domain or fragment)
chain: SMPELSPVLGLHQGQGAGDSPTPGPSNAAPVCRNSHTATPNVSPIHEPESHNSPEAPILFPDDWYPPSIDPADLD
B3: type 2 EBNA2 motif 2 peptide (402-412) (peptide)
peptide: EPPFLFPSDWY
notes: source: synthetic peptide (Peptide Synthetics)
B4: type 2 EBNA2 polypeptide T2 EBNA2_(348-422) (domain or fragment)
chain: SMPQLSPVVSLHQGQGPENSPTPGPSTAGPVCRVTPSATPDISPIHEPESSDSEEPPFLFPSDWYPPTLEPAELD
notes: pET47b+ construct; Monomer by SEC-MALS; also called type 2 EBNA2_(348-422); source: E. coli Rosetta 2 (DE3) pLysS, purified (cobalt resin, 3C protease cleavage, Superdex 75); not shown: His6, N-terminal, cleaved
B5: T2 EBNA2_(348-422) SD mutant (domain or fragment)
chain: B4 chain with S62D
notes: EBNA2 of type 2 EBV (AG876), amino acids 348-422 with serine 409 changed to aspartate (the position that is 442 in type 1 EBNA2); text and methods print 409; source: E. coli Rosetta 2 (DE3) pLysS, purified (cobalt resin, 3C protease cleavage, Superdex 75); not shown: His6, N-terminal, cleaved
B6: T2 EBNA2_(348-422) motif 3 mt (domain or fragment)
chain: B4 chain with P67A, L69A, P71A
notes: EBNA2 of type 2 EBV (AG876), amino acids 348-422, motif 3 (PTLEP 414-418) mutated to ATAEA; source: E. coli Rosetta 2 (DE3) pLysS, purified (cobalt resin, 3C protease cleavage, Superdex 75); not shown: His6, N-terminal, cleaved
B7: EBNA2_(348-422) SD + m3 mt (domain or fragment)
chain: B4 chain with S62D, P67A, L69A, P71A
notes: EBNA2 of type 2 EBV (AG876), amino acids 348-422 with S409D and motif 3 (PTLEP 414-418) mutated to ATAEA; also called T2 EBNA2_(348-422) SD + motif 3 mt; double mutant type 2 EBNA2 polypeptide; source: E. coli Rosetta 2 (DE3) pLysS, purified (cobalt resin, 3C protease cleavage, Superdex 75); not shown: His6, N-terminal, cleaved
B8: BS69 CC-MYND domain (amino acids 480-602) (domain or fragment, human, UniProt Q15326-1 480-602, looked up)
chain: T1 chain
notes: BS69 (ZMYND11), human, C-terminal region with the coiled-coil and MYND domains, amino acids 480-602; canonical isoform 1 of 602 amino acids; Dimer by SEC-MALS; Amplified from pCI-BS69 and cloned into pET49b+; also called ZMYND11; source: E. coli Rosetta 2 (DE3) pLysS, purified (cobalt resin, 3C protease cleavage, Superdex 75); not shown: GST, N-terminal, cleaved; His6, N-terminal, cleaved
B9: type 2 EBNA2 motif 3 peptide T2 EBNA2_(412-422) (peptide)
peptide: YPPTLEPAELD
notes: as for B3

Experiments:
[1] = molecular target: B8; assay: ITC; EBNA2 polypeptide titrated into BS69CC-MYND (0.1 mM) in the cell, 19 x 2.0 μl injections, 25°C, 20 mM Tris-HCl, 100 mM NaCl, 1 mM TCEP, pH 7.5; one set of sites model; n calculated for monomeric proteins; details: both partners purified
[2] = molecular target: T1, BS69 CC-MYND domain (amino acids …); assay: ITC
[3] = molecular target: B8; assay: ITC; EBNA2 peptide (1 mM) titrated into BS69CC-MYND (0.1 mM) in the cell, 13 injections, 25°C, 20 mM Tris-HCl, 100 mM NaCl, 1 mM TCEP, pH 7.5; one-site model with n fixed to 1; details: both partners purified
[4] = molecular target: B8; assay: ITC; EBNA2 polypeptide titrated into BS69CC-MYND (0.1 mM) in the cell, 29 x 1.3 μl injections, 25°C, 20 mM Tris-HCl, 100 mM NaCl, 1 mM TCEP, pH 7.5; two sets of sites (two event) model; details: both partners purified
[5] = molecular target: the molecule itself; assay: SEC-MALS; individual proteins, 5 mg/ml, Shodex KW403-4F column, 25°C, 20 mM Tris-HCl, 100 mM NaCl, 1 mM TCEP, pH 7.5

Binder: B1
- Kd [1]: 1210 nM
- stoichiometry N [1]: 0.33 molar ratio EBNA2 : BS69CC-MYND monomer

Binder: B2
- Kd [2]: 730 nM

Binder: B3
- Kd [3]: 176 µM

Binder: B4
- Kd [2]: 1010 nM
- dH (second binding event) [4]: -1.59 kcal/mol
- stoichiometry N [1]: 0.15 molar ratio EBNA2 : BS69CC-MYND monomer

Binder: B5
- dH (second binding event) [4]: -7.65 kcal/mol

Binder: B6
- stoichiometry N [1]: 0.3 molar ratio EBNA2 : BS69CC-MYND monomer

Binder: B7
- dH (second binding event) [4]: -9.62 kcal/mol
- fold reduction of the affinity of the second binding event (KD2) against m11 [4]: ~2 fold

Binder: B8
- stoichiometry N [5]: 2

Binder: B9
- Kd [3]: 219 µM
